From article PMC9780815

Biological target: GFP-BMB1 (Hibiscus green spot virus)
Experiment: FRET or BRET

Question: How did the FRET efficiency turn out when BMB2-mRFP (natural protein) was run?
Answer: 36%

Question: What about the reduction of the GFP excited-state lifetime (FLIM) against the controls of the same substance?
Answer: 0.9 ns
